According to patent publication US20240400701A1 (LANOVA MEDICINES DEVELOPMENT, published 2024):
Substitutions are numbered along the chain they refer to.

T1: human AMHRII (anti-Mullerian hormone receptor type 2) (human, UniProt Q16671 18-573)
T1 sequence (looked up): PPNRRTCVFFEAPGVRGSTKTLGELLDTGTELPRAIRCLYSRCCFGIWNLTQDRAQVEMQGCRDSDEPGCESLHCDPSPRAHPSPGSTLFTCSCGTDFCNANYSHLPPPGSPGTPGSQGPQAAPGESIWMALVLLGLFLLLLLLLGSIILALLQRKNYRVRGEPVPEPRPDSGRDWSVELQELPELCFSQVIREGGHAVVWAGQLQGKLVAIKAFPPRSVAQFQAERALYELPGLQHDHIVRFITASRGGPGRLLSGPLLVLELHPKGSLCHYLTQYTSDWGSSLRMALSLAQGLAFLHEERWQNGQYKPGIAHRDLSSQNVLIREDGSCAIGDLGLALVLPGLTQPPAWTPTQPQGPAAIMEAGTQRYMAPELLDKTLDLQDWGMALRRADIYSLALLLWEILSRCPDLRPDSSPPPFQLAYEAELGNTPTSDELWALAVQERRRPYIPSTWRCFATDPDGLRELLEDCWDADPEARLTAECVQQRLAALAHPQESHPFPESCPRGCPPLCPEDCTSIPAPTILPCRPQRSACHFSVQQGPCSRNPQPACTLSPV

T2: rat AMHR2 (rat, UniProt Q62893 18-557)
T2 construct: whole, on cells; also called rat AMHRII
T2 sequence (looked up): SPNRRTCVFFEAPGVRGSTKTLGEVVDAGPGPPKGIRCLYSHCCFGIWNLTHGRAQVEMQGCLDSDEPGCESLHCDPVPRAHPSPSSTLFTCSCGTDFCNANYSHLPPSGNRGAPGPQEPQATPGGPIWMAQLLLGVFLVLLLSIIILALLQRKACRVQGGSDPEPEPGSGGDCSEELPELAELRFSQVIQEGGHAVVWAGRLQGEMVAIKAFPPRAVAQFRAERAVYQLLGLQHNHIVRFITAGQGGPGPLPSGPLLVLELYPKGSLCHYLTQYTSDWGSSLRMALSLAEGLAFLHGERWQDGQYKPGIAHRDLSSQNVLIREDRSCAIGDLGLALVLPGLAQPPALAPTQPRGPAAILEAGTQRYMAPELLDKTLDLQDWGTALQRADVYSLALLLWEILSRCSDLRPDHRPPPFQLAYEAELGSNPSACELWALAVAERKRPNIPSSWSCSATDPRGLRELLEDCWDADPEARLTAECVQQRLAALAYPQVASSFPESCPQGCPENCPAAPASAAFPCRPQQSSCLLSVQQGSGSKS

T3: mouse AMHR2 (mouse, UniProt Q8K592 16-568)
T3 construct: whole, on cells; also called mouse AMHRII
T3 sequence (looked up): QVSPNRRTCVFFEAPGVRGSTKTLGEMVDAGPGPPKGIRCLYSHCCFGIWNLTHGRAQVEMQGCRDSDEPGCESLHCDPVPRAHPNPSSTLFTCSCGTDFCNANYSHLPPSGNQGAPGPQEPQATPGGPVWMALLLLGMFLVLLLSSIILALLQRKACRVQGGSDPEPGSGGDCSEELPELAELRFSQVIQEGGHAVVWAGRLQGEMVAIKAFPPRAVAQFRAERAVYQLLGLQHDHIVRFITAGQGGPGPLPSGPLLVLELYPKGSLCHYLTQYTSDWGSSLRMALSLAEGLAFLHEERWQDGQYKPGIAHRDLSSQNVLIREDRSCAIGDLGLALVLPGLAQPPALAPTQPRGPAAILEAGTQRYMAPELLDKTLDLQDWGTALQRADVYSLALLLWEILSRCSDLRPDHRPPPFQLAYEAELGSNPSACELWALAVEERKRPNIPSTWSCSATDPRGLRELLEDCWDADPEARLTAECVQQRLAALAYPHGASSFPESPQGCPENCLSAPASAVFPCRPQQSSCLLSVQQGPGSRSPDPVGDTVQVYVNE

B1: xi103C5G10F9 hIgG1 (antibody, V domains shown)
VH: DVQLQESGPGLVKPSQSLSLTCTVTGYSITSDYAWNWIRQFPGNKLEWMGYISYSGSTSYNPSLKSRISITRDTSKNQFFLQLNSVTTEDTATYYCARSRYSWFDYWGQGTLVTVSA
VL: DIVLTQSPTSLAVSLGQRATLSCSASESVDTYGNSFMHWYQQKPGQSPKLLIYRASSLESGIPARFSGSGSRTDFTLTINPVEAADVATYYCQQSNEDPYTFGGGTKLEIK
notes: Murine variable domains in human chimeric format, human IgG1; also called 103C5G10F9 (chimeric)
B2: xi94C4C3 hIgG1 (antibody, V domains shown)
VH: B1 VH with T58I
VL: B1 VL with S47P, A64V
notes: Murine variable domains in human chimeric format, human IgG1; also called xi94C4C3 hlgG1; 94C4C3 (chimeric)
B3: xi108F3D1E9 hIgG1 (antibody, V domains shown)
VH: B1 VH with Y33F, S53N, Y54F, R98G, D105A
VL: B1 VL with T9A, L21I, S24R, S47P, S57N, A85D
notes: Murine variable domains in human chimeric format, human IgG1; also called xi108F3D1E9 hlgG1; 108F3D1E9 (chimeric)
B4: xi114A2B5 hIgG1 (antibody, V domains shown)
VH: B1 VH
VL: B1 VL with T9A, S24R
notes: Murine variable domains in human chimeric format, human IgG1; also called 114A2B5 (chimeric)
B5: xi31D9B3 hIgG1 (antibody, V domains shown)
VH: QVKLLQSGAALVKPGASVKMSCKASGYTFTDYWVSWVKQSHGKSLEWIGEIYPKNGVSNFNEKFKGKATLTVDKSTSTAYMELRRLTSEDSAIFYCTRQRDYWGQGVMVTVSS
VL: DVVLTQTPGSLSVTLGDQASISCRSSQSLEYGDGYTYLEWYLQKPGQSPQLLIYGVSNRFSGVPDRFIGSGSGTDFTLKISRVEPEDLGVYYCFQATHDPNTFGAGTKLELK
notes: Murine variable domains in human chimeric format, human IgG1; also called xi31D9B3 hlgG1; 31D9B3 hlgG1
B6: xi35D4G3 hIgG1 (antibody, V domains shown)
VH: B5 VH with K3R, V18A, K54D, V57I, S58T, S77R, R84S, F94Y
VL: B5 VL with A19V, E30K, I53F, A105T, E110D
notes: Murine variable domains in human chimeric format, human IgG1; also called 35D4G3 (chimeric)
B7: 108F3D1E9 H1L1 hIgG1 (antibody, V domains shown)
VH: QLQLQESGPGLVKPSETLSLTCTVSGYSITSDFAWNWIRQPPGKGLEWIGYISFSGSTSYNPSLKSRVTISVDTSKNQFSLKLSSVTAADTAVYYCARSRYSWFAYWGQGTLVTVSS
VL: DIQMTQSPSSLSASVGDRVTITCRASESVDTYGNSFMHWYQQKPGKAPKLLIYRASNLESGVPSRFSGSGSGTDFTLTISSLQPEDFATYYCQQSNEDPYTFGGGTKVEIK
notes: Humanized, PTM de-risked VH, human IgG1; also called 108F3D1E9 H1L1 hlgG1

What was measured:
[1] = biological target: T1, human AMHRII (anti-Mullerian hormone …); assay: cell-based or functional assay
[2] = biological target: T1, human AMHRII (anti-Mullerian hormone …); assay: FACS on Rko cells over-expressing human AMHR2
Experimental: (§1) Similarly, the binding of these antibodies was tested with Rko cells that over-expressed AMHR2. 100 μl of 1×10⁶ cells/ml of cells were incubated with the antibodies in 3-fold serial dilutions starting from 300 nM to 0.002 nM for 30 minutes on ice. After being washed with 200 μl of FACS buffer twice, cells were incubated with secondary antibody for 30 minutes on ice. Cells were washed with 200 μl of FACS buffer twice and analyzed by FACS.

[3] = biological target: T1, human AMHRII (anti-Mullerian hormone …); assay: FACS on CHO-K1 cells over-expressing human AMHR2
Experimental: as §1, with “CHO-K1” for “Similarly, the binding of these antibodies was tested with Rko”, “AMHR2 were harvested from flasks.” for “AMHR2.”, “primary chimeric” for “the”, “antibodies (or with positive reference antibody Ref.Ab)” for “antibodies”

[4] = biological target: T1, human AMHRII (anti-Mullerian hormone …); assay: FACS on Rko cells over-expressing human AMHR2; remark: listed apart in the source
Experimental: as §1, with “Rko” for “Similarly, the binding of these antibodies was tested with Rko”, “over-expressing AMHR2 were harvested from flasks.” for “that over-expressed AMHR2.”, “primary PTM” for “the”, “0.001” for “0.002”

[5] = biological target: T1, human AMHRII (anti-Mullerian hormone …); assay: FACS on CHO-K1 cells over-expressing human AMHR2; remark: listed apart in the source
Experimental: as §1, with “CHO-K1” for “Similarly, the binding of these antibodies was tested with Rko”, “cells” for “cells that”, “AMHR2 were harvested from flasks.” for “AMHR2.”, “the humanized” for “the”, “0.001” for “0.002”

[6] = biological target: T1, human AMHRII (anti-Mullerian hormone …); assay: FACS on CHO-K1 cells over-expressing human AMHR2; remark: listed apart in the source
Experimental: as §1, with “CHO-K1” for “Similarly, the binding of these antibodies was tested with Rko”, “cells” for “cells that”, “AMHR2 were harvested from flasks.” for “AMHR2.”, “the humanized” for “the”, “0.001” for “0.002”

[7] = biological target: T1, human AMHRII (anti-Mullerian hormone …); assay: FACS on CHO-K1 cells over-expressing human AMHR2; remark: listed apart in the source
Experimental: as §1, with “CHO-K1” for “Similarly, the binding of these antibodies was tested with Rko”, “cells” for “cells that”, “AMHR2 were harvested from flasks.” for “AMHR2.”, “the humanized” for “the”, “0.001” for “0.002”

[8] = biological target: T1, human AMHRII (anti-Mullerian hormone …); assay: FACS on CHO-K1 cells over-expressing human AMHR2; remark: listed apart in the source
Experimental: as §1, with “CHO-K1” for “Similarly, the binding of these antibodies was tested with Rko”, “cells” for “cells that”, “AMHR2 were harvested from flasks.” for “AMHR2.”, “the humanized” for “the”, “0.001” for “0.002”

[9] = biological target: T1, human AMHRII (anti-Mullerian hormone …); assay: FACS on CHO-K1 cells over-expressing human AMHR2; remark: listed apart in the source
Experimental: as §1, with “CHO-K1” for “Similarly, the binding of these antibodies was tested with Rko”, “cells” for “cells that”, “AMHR2 were harvested from flasks.” for “AMHR2.”, “the humanized” for “the”, “0.001” for “0.002”

[10] = biological target: T1, human AMHRII (anti-Mullerian hormone …); assay: FACS on CHO-K1 cells over-expressing human AMHR2; remark: listed apart in the source
Experimental: as §1, with “CHO-K1” for “Similarly, the binding of these antibodies was tested with Rko”, “cells” for “cells that”, “AMHR2 were harvested from flasks.” for “AMHR2.”, “the humanized” for “the”, “0.001” for “0.002”

rat AMHR2 = biological target: T2, rat AMHR2; assay: FACS on CHO-K1 cells over-expressing rat AMHR2
Experimental: (§2) To evaluate these antibodies' cross reactivities to cyno, rat and mouse AMHR2, CHO-K1 cells over-expressing cyno, rat and mouse AMHR2, respectively, were harvested from flasks. 100 μl of 1×10⁶ cells/ml of cells were incubated with primary antibodies in 4-fold serial dilutions starting from 300 nM to 0.018 nM for 30 minutes on ice. After being washed with 200 μl of FACS buffer twice, cells were incubated with secondary antibody for 30 minutes on ice. Cells were washed with 200 μl of FACS buffer twice and analyzed by FACS.

mouse AMHR2 = biological target: T3, mouse AMHR2; assay: FACS on CHO-K1 cells over-expressing mouse AMHR2
Experimental: as §2

Binder | ADCC reporter bioassay, EC50 [1] [pM] | ADCC reporter bioassay, Top (MFI) [1] [MFI] | EC50 [2] [pM] | Top (MFI) [2] [MFI] | EC50 [3] [pM] | Top (MFI) [3] [MFI] | EC50 [4] [pM] | Top (MFI) [4] [MFI] | EC50 [6] [pM] | Top (MFI) [6] [MFI] | also measured
B1 | 390 | 13900 | 430 | 8580 | 1080 | 124000 | – | – | – | – | –
B2 | 350 | 13100 | 560 | 8380 | 1170 | 124000 | 627 | 19000 | 1210 | 54900 | EC50 [5]: 1210 pM; Top (MFI) [5]: 54900 MFI
B3 | 190 | 13300 | 470 | 8190 | 1370 | 124000 | 756 | 18700 | 1050 | 74400 | EC50 [7]: 1050 pM; Top (MFI) [7]: 74400 MFI
B4 | 340 | 14100 | 520 | 8330 | 1040 | 127000 | – | – | – | – | –
B5 | 270 | 14400 | 570 | 8360 | 1160 | 122000 | 658 | 18600 | 881 | 26200 | EC50 [8]: 880 pM; Top (MFI) [8]: 35200 MFI; EC50 [9]: 880 pM; Top (MFI) [9]: 35200 MFI; EC50 [10]: 881 pM; Top (MFI) [10]: 26200 MFI
B6 | 250 | 14500 | 490 | 8290 | 110 | 114000 | – | – | – | – | –
B7 | – | – | – | – | – | – | 528 | 16200 | 740 | 65400 | binding result (rat AMHR2): binds; binding result (mouse AMHR2): binds
